Here are results for 1 molecule from patent publication US7670806B2, “ADP-ribosyl acceptor hydrolase 3 (ARH3) polypeptides and methods of use” (The United States of America as represented by the …, priority 2005, dated 2010).

Experiment [1] is described as follows: Hydrolysis of O-acetyl-[14C]ADP-ribose by ARH proteins / PARG (RP-HPLC). It is filed as biochemical. The conditions noted are these: 1.5 pmol wild type or mutant human ARH3 or 20 mU PARG, 2 h at 30° C.; mouse ARH1, 2, 3. Here is the method:
FIG. 13A is a graph illustrating the results from incubation of 1.5 pmol of mouse ARH3 with or without 5 mM DTT and/or 10 mM MgCl2 as described in FIG. 11B with incubation for 1 h at 30° C. FIG. 13B is a graph illustrating the results from incubation of 1.5 pmol of wild type or mutant human (D77-78) ARH3 or 20 mU of PARG for 2 h at 30° C. *D77,78, assays incubated with 15 pmol of mutant human ARH3 (D77, D78).
FIG. 14A is a graph of the results from incubation with the indicated amount of mouse ARH1, 2, or 3 for 2 h at 30° C. FIG. 14B is a graph of the results from incubation with 230 pmol of mouse ARH1 at 30° C. for the indicated time.
Mouse ARH3 (2 pmol) and 2.5 μM O-acetyl-[^14C]ADP-ribose (5,000 cpm) in 200 μl of buffer containing 50 mM potassium phosphate (pH 7.0), 10 mM MgCl2 and 5 mM DTT were incubated for 2 h at 30° C., before separation of substrate and products using RP-HPLC as described below.
Hydrolysis of O-acetyl-[^14C]ADP-ribose catalyzed by ARH3. Assays containing the indicated concentration of O-acetyl-[^14C]-ADP-ribose (0.1 to 2 nmol, 1,000 to 20,000 cpm) and 1.5 pmol of ARH3 in 200 μl of buffer (50 mM KPO4 (pH 7.0), 10 mM MgCl2, 5 mM DTT) were incubated at 30° C. for 20 min. Substrate and products were separated using RP-HPLC. Amounts of product were corrected for ADP-ribose produced in the absence of ARH3 before calculation of hydrolysis rates.
Because O-acetyl-ADP-ribose was known to be hydrolyzed at alkaline pH Tanny and Moazed (2001), Proc Natl Acad Sci USA. 98(2):415-20, Epub Dec. 26, 2000), it was generated at pH 7.0 in the presence of [^14C-adenine] β-NAD, Sir2, and acetylated histone H3 peptide (FIG. 11A), and the products of Sir2 and ARH3 were analyzed using reverse-phase HPLC at the same pH (FIGS. 11A,B). The products of the ARH3-catalyzed reaction were also analyzed by high resolution-polyacrylamide gel electrophoresis (FIG. 11C). O-acetyl-[^14C]ADP-ribose hydrolase activity was time and ARH3 dependent (FIG. 12) and essentially completely dependent on Mg^2+ (FIG. 13A).
O-acetyl-ADP-ribose hydrolysis by ARH1 was time and ARH1 dependent (FIG. 14b).

A short description of a further experiment: ADP-ribose binding assay. The conditions noted are these: 1 μM ARH3, 3 μM [14C]ADP-ribose, 30° C., 16 h. The method, then: ADP-ribose binding assay. [^14C]ADP-ribose was generated by incubation overnight at 30° C. of 80 μM (10 μCi) [adenine-U-^14C]NAD with 50 μl of RT6.2 solution (5 nmol/h NADase activity; gift from Dr. Sunhee Park, NHLBI, National Institutes of Health, Bethesda, Md.) in 250 μl of 50 mM potassium phosphate, pH 7.5, and purified by HPLC using Zorbax Sax column as described above. [^14C]ADP-ribose, eluted at 40 min, was stored at −20° C.
To assess protein binding, 1 μM human wild type or D77N/D78N mutant ARH3 was incubated (30° C., 16 h) with 3 μM [^14C]ADP-ribose in 50 mM potassium phosphate buffer, pH 7.5, without or with 10 mM MgCl2, and/or 5 mM DTT (total volume 100 μl). A sample (90 μl) was applied to a column (0.5×4 cm) of Affi-Gel boronate (100 mg, Bio-Rad) which was equilibrated with 0.1 M glycine, pH 9.0, containing 0.1 M NaCl, with or without 10 mM MgCl2, and/or 5 mM DTT, and eluted with five 1-ml portions of the same solution. The total eluate, containing ARH with bound ADP-ribose was collected for liquid scintillation counting.
After incubation of wild-type or mutant ARH3 (1 μM) with [^14C]ADP-ribose (3 μM) (30° C., 16 h) without or with 10 mM MgCl2 and/or 5 mM DTT (total volume 100 μl), unbound ADP-ribose was removed by binding to Affi-gel boronate (Bio-Rad), and ARH3 with ADP-ribose bound, was collected for radioassay. […]

B1: ARH3 (D77N/D78N): human ARH3 mutant with dual amino acid replacement D77N/D78N (protein)
chain: MAAAAMAAAAGGGAGAARSLSRFRGCLAGALLGDCVGSFYEAHDTVDLTSVLRHVQSLEPDPGTPGSERTEALYYTNNTAMARALVQSLLAKEAFDEVDMAHRFAQEYKKDPDRGYGAGVVTVFKKLLNPKCRDVFEPARAQFNGKGSYGNGGAMRVAGISLAYSSVQDVQKFARLSAQLTHASSLGYNGAILQALAVHLALQGESSSEHFLKQLLGHMEDLEGDAQSVLDARELGMEERPYSSRLKKIGELLDQASVTREEVVSELGNGIAAFESVPTAIYCFLRCMEPDPEIPSAFNSLQRTLIYSISLGGDTDTIATMAGAIAGAYYGMDQVPESWQQSCEGYEETDILAQSLHRVFQKS
As to B1, the “O-acetyl-ADP-ribose hydrolysis (in words)” value in experiment [1] is “apparently inactive”. In addition, in the experiment “ADP-ribose binding assay”, the “[14C]ADP-ribose binding” value is recorded as “similar”.
